experiment: yeast display, Sf9 membrane polyspecificity reagent, FACS + sequencing; frameworks hold sequencing errors
Summary of the method: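 Using colony PCR, genes from sorted yeast display clones were amplified, then sequenced on MiSeq at 2 × 250 and filtered by CDR length. The clones had been stained with 10% biotinylated, detergent-solubilized Sf9 membrane reagent for 1 hour at 4 °C and sorted by FACS into low and high (top ~1%) gates on anti-HA and streptavidin fluorescence. Polyreactivity labels come from the gate of origin.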

| Sequence | polyreactivity (PSR sort gate) |
| --- | --- |
| QVQLVESGGGLVQAGGSLRLSCAASGSTFKRNARGWYRQAPGKERELVASISKRGGSTYYADSVKGRFTISRDNAKNTVYLQMNSLIPEDTAVYYCAKTWQNGDRNTIGSVYAYDYWGQGTQVTVSS | high polyreactivity |
| QVQLVESGGGLVQAGGSLRLSCAASGSTFKRYAMGWYRQAPGKERELVAAITSGSSTYYADSVKGRFTISRDNAKNTVYLQMNSLKPEDTAVYYCAARRAGAKYYLYGYDYWGQGTQVTVSS | low polyreactivity |
| QVQLVESGGGLVQAGGSLRLSCAASGSTFKRYAMGWYRQAPGKERELVASISQRGGTTYYADSVKGRFTISRDNAKNTVYLQKNSLKPEDTAVYYCAKGFGWTRTIYDYWGQGTQVTVSS | high polyreactivity |
| QVQLVESGGGLVQAGGSLRLSCAASGSTFKSYAKGWYRQAPGKEREFVAAIRGNGARTYYADSVKGRITISRDNAKNTVYFQMNSLKPEDTAVYYCNAVRYSFSDSSVDYWGQGTQVTVSS | high polyreactivity |
| QVQLVESGGGLVQAGGSLRLSCAASGSTFKSYAMGWYRQAPGKERELVAAISYRGGSTYYADSVKGRFTISRDNAKNTVYLQMNSLKPEDTAVYYCAAVKLYSYYYWGQGTQVTVSS | high polyreactivity |
| QVQLVESGGGLVQAGGSLRLSCAASGSTFKSYAMGWYRQAPGKERELVAAITHRGSTYYADSVKGRFTISRDNAKNTVDLQMNSLKPEDTAVYYCNVRRIGNGRRVDYWGQGTQVTVSS | high polyreactivity |
| QVQLVESGGGLVQAGGSLRLSCAASGSTFKSYAMGWYRQAPGKERELVAAITRGGSTNYADSVKGRFTISRDNAKNTVYLQMNSLKPEDTAVYYCAKTYRYRTMDYWGQGTQVTVSS | low polyreactivity |
| QVQLVESGGGLVQAGGSLRLSCAASGSTFKWNAMGWYRQAPGKERELVAAISKGSVNTYYADSVKGRFTISRDNAKNTVYLQMNSLKPEDTAVYYCAADRRYPALDYRGQGTQVTVSS | high polyreactivity |
| QVQLVESGGGLVQAGGSLRLSCAASGSTFKYYAMGWYRQAPGKERELVAAISYRGGRTYYADSVKGRFTISRDNAKNTVNLQMNSLKPEDTAVYYCAAVKPYYIQYQGSAGYDYWGQGTQVTVSS | high polyreactivity |
| QVQLVESGGGLVQAGGSLRLSCAASGSTFKYYAMGWYRQAPGKERELVASITRTGSSTYYADSVKGRFTISRDNAKNTVYLQMNSLKPEDTAVYFCNTGPHSVWWHYGYDYWGQGTQVTVSS | high polyreactivity |
| QVQLVESGGGLVQAGGSLRLSCAASGSTFKYYAMGWYSQAPGKERELVAAISKGATRTYYADSVKGRFTISRDTAKNTVYLQMNSLKPEDTAVYYCAADRLKFPGEYDYWGQGTQVTVSS | high polyreactivity |
| QVQLVESGGGLVQAGGSLRLSCAASGSTFLDNAMGWYRQAPGKETELVAAITQSGSSTYYADSVKGRFTISRDNAKNTVYLQMNSLKPEDTAVYYCAADVPNISFDYWGQGTQVTVSS | low polyreactivity |
| QVQLVESGGGLVQAGGSLRLSCAASGSTFLFYAMGWYRQAPGKEREFVAAITWSGGSTYYADSVKGRFTISRDNAKNTVYLQMNSLKPEDTAVYYCNGYYVPTTGREFYFAFYYWGQGTQVTVSS | low polyreactivity |
| QVQLVESGGGLVQAGGSLRLSCAASGSTFLFYTMGWYRQAPGKERELVAAINSGGSTNYADSVKGRFTISRDNAKNTVYLQMNSLKPEDTAVYYCNADRTYVYKYTYSFYYWGQGTQVTVSS | low polyreactivity |
| QVQLVESGGGLVQAGGSLRLSCAASGSTFLGNVMGWYRQAPGKERELVAAITSTGGNTYYADSVKGRFTISRDNAKNSVYLQMNSLKPEDTAVYYCAKKYVWTHNYWGQGTQVTVSS | low polyreactivity |
| QVQLVESGGGLVQAGGSLRLSCAASGSTFLIKAMGWYRQAPGKEREVVASIRYRGATTYADSVKGRFTISRDNAKNTVYLQLKSLKPEDTAVYYCAAVHWRYQYSLRYDYWGQGTQVTVSW | high polyreactivity |
| QVQLVESGGGLVQAGGSLRLSCAASGSTFLINVLGWYRQAPGKERELVARISWRAATTYYADSVKGRFTISRDNAKNTVYLPMYSLQPEDTAVYYCADDLYKRGFDYWGQGTQVTVSS | low polyreactivity |
| QVQLVESGGGLVQAGGSLRLSCAASGSTFLKYAMGWYKHAPWKERELVAAITYRGGTTYYADSVKGRFTISRDNAKNSVYFQMNSLKPVDTAVYYCNARRDYDMDWGQGTLVTVSS | high polyreactivity |
| QVQLVESGGGLVQAGGSLRLSCAASGSTFLKYAMVWYRQAPGKERELVAAITSDGTTYADSVKGRFTISRDNAKNTVYLQMNSLKPEDTAVYYCAKDYRHPTFDYWGQGTQVTVSS | low polyreactivity |
| QVQLVESGGGLVQAGGSLRLSCAASGSTFLKYDMGWYRQAPGKERELVAAISWDGGSTYYADSVKGRFTISRDNAKNTVYLQMNSLKPEDTAVYYCNADYDVYLTIWYYYGEFDYWGQGTQVTVSS | low polyreactivity |
| QVQLVESGGGLVQAGGSLRLSCAASGSTFLLNTMGWYRQAPGKERELVAVINSDDSTYYADSVKGRFTISRDNAKNTVYLQMNSLKPEDTAVYYCAAEPQYTRHMDSWGQGTQVTVSS | low polyreactivity |

| Sequence | polyreactivity (PSR sort gate) |
| --- | --- |
| QVQLVESGGGLVQAGGSLRLSCAASGSTFLLYDMGWYRQAPGKERELVAAITWSGGSTYYADSVKGRFTISRDNAKNTVYLQMNSLKPEDTEVYYCAADSLGDRYYYWGQGTQVTVSS | low polyreactivity |
| QVQLVESGGGLVQAGGSLRLSCAASGSTFLNNAMGWYRQAPGKERELVATITSGGITNYADSVKGRFTISRDNEKNTVYLQMNSLKPEDTAVYYCNADTWGFTYYYWGQGTQVTVSS | low polyreactivity |
| QVQLVESGGGLVQAGGSLRLSCAASGSTFLNYAMGWYRQAPGKERELVAAISFSGGRTYYADSVKGRFTISRDIAKNTVYLQMNSLKPEDTAVYYCGAGGWRGHYYCGQGTQVTVSS | high polyreactivity |
| QVQLVESGGGLVQAGGSLRLSCAASGSTFLPYAMGWYRQAPGKERELVAAIDWNGGRTYYADSVKGRFTISRDNAKNTVYLQMNSLKPEDTAVYYCAKLGRAAQGNYYWGQGTQVTVSS | high polyreactivity |
| QVQLVESGGGLVQAGGSLRLSCAASGSTFLPYAMGWYRQAPGKERELVAAITWRTGSTYYADSVKGRFTISRDNAKNTVYLQMNSLKPEDTAVYYCNAKQRGKFDYWGQGTQVTVSS | low polyreactivity |
| QVQLVESGGGLVQAGGSLRLSCAASGSTFLRNAMGWYRQAPGKEWELVATISTGSGRTYYADSVKGRFTISRDNAKNTVYLQMHSLKPEDTAVYYCAASRTLRKHRYEYWGQGTQVTVSS | high polyreactivity |
| QVQLVESGGGLVQAGGSLRLSCAASGSTFLRNVMGWYRQAPGKERELVAAISSRGGSTHYADSVQGRFTISRDNAKHTVYLQMNSLKPEDTAVYYCNAERTAAQYVRAAYDYWGLGTQVTVSS | low polyreactivity |
| QVQLVESGGGLVQAGGSLRLSCAASGSTFLTNAMGWYRQAPGKERELVAAIRTSGGSTYYADSVKGRFTSSRDNAKKTVYVLMNSLKPEDTAVYYCAASYRRRRFSEYYYWGQGTQVTVAS | high polyreactivity |
| QVQLVESGGGLVQAGGSLRLSCAASGSTFLTYAMGWYRQAPGKERELVAGISYSTGSTYYADSVKGRFTISRDNAKNTVYLQMHSLKPEDTAVYYCAADEWDGLRYYYYFNYEYWGQGTQVTVSS | low polyreactivity |
| QVQLVESGGGLVQAGGSLRLSCAASGSTFLTYAMGWYRQAPGKERELVASISRSGSTNYADSVKGRFTISRDNAKNTVYLQLNSLKPEDTAVYYCAADHTRYSSSWYYKQYYYWGQGTQVTVSS | low polyreactivity |
| QVQLVESGGGLVQAGGSLRLSCAASGSTFLVYAMGWYRQAPGKEMEFVAAISWSGGSTFYADSVKGRFTISRDNAKNTVYLQMNSLKPVDTAVYYCAARQAGYSGRKLYYWGQGTQVTVSS | low polyreactivity |
| QVQLVESGGGLVQAGGSLRLSCAASGSTFLVYAMGWYRQAPGKERELVAAITRRSTSTFYADSVKGRFTISRVNAKNTVYLQMNSLKPEDTAVYYWAADTRFISRENYWGQGTQVTVSS | high polyreactivity |
| QVQLVESGGGLVQAGGSLRLSCAASGSTFLVYAMGWYRQAPGKERELVAVIDNGGDTYYADSVKGRFTISRDNAKNTVYLQMNSLKPEDTEVYYCAADLSYLGYWEYDYWGQGTQVTVSS | low polyreactivity |
| QVQLVESGGGLVQAGGSLRLSCAASGSTFLVYAMGWYRQAPGKERELVAVIDNGGDTYYADSVKGRFTISRDNAKNTVYLQMNSLKPEDTEVYYCAADMSYLGYWEYDSWGQGTQVTVSS | low polyreactivity |
| QVQLVESGGGLVQAGGSLRLSCAASGSTFLWNAMGWYRPAPGKERELVAAISYSGGSTYYADSVKGRFTISRDNAKNTVYLQMNSLKPEVTAVYYCAKEWFYDPYPPGYDYWGQGTQVTVSS | low polyreactivity |
| QVQLVESGGGLVQAGGSLRLSCAASGSTFLYNAMGWYRQAPGKERELVAAISTTGARTNYADSVKGRFTISRDNAKNTVYLQMNSLKPEDTAVYYCKDRRGHYWGQGTQVTVSS | high polyreactivity |
| QVQLVESGGGLVQAGGSLRLSCAASGSTFLYNAMGWYRQAPGKERELVAAISWSGGSTYYADSVKGRFTISRDNAKNTVYLQMNSLKPEDTAVYYCNALSVPDYDYWGQGTQVTVSS | high polyreactivity |
| QVQLVESGGGLVQAGGSLRLSCAASGSTFLYNAMGWYRQAPGKERELVAAITIGGGSTYYADSVKGRFTISRDNAKNTVYLQMNSLKPEDTAVYYCNKGSYYWWDPGSTYIDDNWGQGTQVTVSS | low polyreactivity |
| QVQLVESGGGLVQAGGSLRLSCAASGSTFLYNTMGWSRQAPGKERELVATITSRGDRTYYADSVKGRFPISRENAKNTVYLQMNSLKPEDTADYYCAALLYIRSVGYDYWGQGPQVTVSS | low polyreactivity |
| QVQLVESGGGLVQAGGSLRLSCAASGSTFLYNTMGWYRQAPGKESELVATITSRGDRTYYADSVKGRFTISRDNAKNTVYLQMNSLKPEDTAVYYCNAYGGNYPQSYRYYYWGQGTQVTVSS | low polyreactivity |
